Reference: PMC11730611
Numbering of substitutions follows the chain as printed.

B1: OP (opossum ADE-like) (structured_RNA)
RNA: GGCCAGGACGCAGUAUUACUCUCGGGUC
B2: dapical (structured_RNA)
RNA: GCCUGCCAGUACCCUCCAUAAAGUUCUAUUUACUGGGCUGGCUCUGGGC
B3: HS (human Ox40 ADE wt) (structured_RNA)
RNA: GGCCAACUCUGCACCGUUCUAGGUGCCGAUGGCU
B4: CH (chicken putative ADE) (structured_RNA)
RNA: GCCGAGCCUGAGUUUAUACAGUCCUUUGUGC
B5: HS 3'bulge (structured_RNA)
RNA: GGCCAUCUGCACCGUUCUAGGUGCCGAACUGGCU
B6: EL (elephant Ox40 ADE) (structured_RNA)
RNA: GUCCCCUCUGCGCCGUUUUAGGCGUUUCUGGGCUGGC
B7: LI (lizard putative ADE) (structured_RNA)
RNA: GGUGUGUUUAUUUCAGGAGACA
B8: MM 3'bulge (structured_RNA)
RNA: GCCUGCCAGUCCACACCGUUCUAGGUGCUGGACCCUGCUGGCUCUGGGC
B9: HE (hedgehog Ox40 ADE) (structured_RNA)
RNA: GCACCCUCCCACACCGUUUUAGGUGUUCUGGGUG
B10: HS low pur. (structured_RNA)
RNA: GGCGAACAGUGCAGCGUUCUAGCUGCCCUUCGCU
B11: dstem1 (structured_RNA)
RNA: GCCUGUAAGUACCCUCCACACCGUUCUAGGUGCUGGGCUUACUCUGGGC
B12: MM (murine Ox40 ADE wt) (structured_RNA)
RNA: B11 RNA with U6C, A7C, U40G, A41G
B13: dstem2 (structured_RNA)
RNA: B11 RNA with C17U, G35A
B14: DK (dolphin/killer whale Ox40 ADE) (structured_RNA)
RNA: GCCCUGUGCCGUUUUAGGCGCUCCUGGGC
B15: delta-bulge (structured_RNA)
RNA: GCCUGCCAGUCCACACCGUUCUAGGUGCUGGGCUGGCUCUGGGC

Each binder was assayed against T1, coreROQ (Roquin, murine/human) (Mus musculus, UniProt Q4VGL6 171-326) (assay: EMSA).
T1 sequence: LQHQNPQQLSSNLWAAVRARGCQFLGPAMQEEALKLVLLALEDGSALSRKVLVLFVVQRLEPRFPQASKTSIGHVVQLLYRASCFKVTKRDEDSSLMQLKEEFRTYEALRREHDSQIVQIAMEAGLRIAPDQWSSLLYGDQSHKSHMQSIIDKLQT

Row | Binder | binding result
1 | B1 | no binding
2 | B2 | no binding

The binders below were run against T2, extROQ (Roquin, murine/human) (Mus musculus, UniProt Q4VGL6 89-404) (assay: EMSA).
T2 sequence: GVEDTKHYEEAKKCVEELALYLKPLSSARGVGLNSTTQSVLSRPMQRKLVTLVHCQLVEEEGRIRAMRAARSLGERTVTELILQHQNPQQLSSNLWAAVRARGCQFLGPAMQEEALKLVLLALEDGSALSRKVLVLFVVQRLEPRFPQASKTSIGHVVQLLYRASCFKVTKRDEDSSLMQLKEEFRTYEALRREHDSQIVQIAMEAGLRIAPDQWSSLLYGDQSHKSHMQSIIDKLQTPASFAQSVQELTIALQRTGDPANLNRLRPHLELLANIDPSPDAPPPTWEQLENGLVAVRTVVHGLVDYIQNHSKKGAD

Row | Binder | Kd
3 | B3 | 386 ± 63.7 nM
4 | B4 | 4460 ± 717 nM
5 | B5 | 475 ± 62.6 nM
6 | B6 | 778 ± 157 nM
7 | B7 | 1840 ± 403 nM
8 | B8 | 525 ± 60.1 nM
9 | B9 | 642 ± 119 nM
10 | B2 | 488 ± 373 nM
11 | B10 | 673 ± 65.2 nM
12 | B11 | 1040 ± 139 nM
13 | B12 | 323 ± 139 nM
14 | B13 | 978 ± 76.9 nM
15 | B14 | 847 ± 77.4 nM
16 | B15 | 479 ± 188 nM

Target: T1, coreROQ (Roquin, murine/human)
Assay: EMSA
Remark: another data set of the same source

Row | Binder | Kd
17 | B3 | 295 ± 29.6 nM
18 | B5 | 293 ± 149 nM
19 | B6 | 534 ± 366 nM
20 | B8 | 241 ± 15.6 nM
21 | B9 | 318 ± 17.2 nM
22 | B10 | 432 ± 62.6 nM
23 | B11 | 381 ± 94.8 nM
24 | B12 | 308 ± 57.2 nM
25 | B13 | 451 ± 46.9 nM
26 | B14 | 480 ± 24.7 nM
27 | B15 | 299 ± 41.6 nM
